The text below walks through data of CN114106176A (SHENZHEN PHENPENG BIOTHERAPY CO LTD, dated 2022).

The assay concerns the target T1, 人CD22胞外段缀合His标签 (hCD22-His, ACRO, CD2-H52H8) (human, UniProt P20273 20-687).
T1 construct: extracellular domain; Bought recombinant protein; also called 人类hCD22-His; not shown: His tag
T1 sequence (looked up): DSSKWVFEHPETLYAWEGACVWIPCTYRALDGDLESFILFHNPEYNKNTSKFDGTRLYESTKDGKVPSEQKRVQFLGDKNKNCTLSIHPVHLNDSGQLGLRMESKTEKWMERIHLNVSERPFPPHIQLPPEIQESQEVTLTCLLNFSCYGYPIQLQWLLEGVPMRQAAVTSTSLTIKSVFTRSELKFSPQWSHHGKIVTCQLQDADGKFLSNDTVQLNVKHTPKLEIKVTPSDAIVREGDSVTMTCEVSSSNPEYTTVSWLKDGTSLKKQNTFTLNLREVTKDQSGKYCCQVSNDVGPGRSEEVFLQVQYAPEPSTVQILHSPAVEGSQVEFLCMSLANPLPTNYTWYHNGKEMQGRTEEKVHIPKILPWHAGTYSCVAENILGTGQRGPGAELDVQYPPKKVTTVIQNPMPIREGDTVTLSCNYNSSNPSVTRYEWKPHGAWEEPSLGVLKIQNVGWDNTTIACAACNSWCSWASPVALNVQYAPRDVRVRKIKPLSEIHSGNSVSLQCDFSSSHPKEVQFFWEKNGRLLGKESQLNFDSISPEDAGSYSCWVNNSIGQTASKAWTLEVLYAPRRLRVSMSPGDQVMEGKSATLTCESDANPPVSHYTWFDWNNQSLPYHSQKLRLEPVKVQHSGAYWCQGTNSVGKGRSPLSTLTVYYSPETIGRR
As to the kind of experiment: ELISA, hCD22-His coated at 2 ug/ml, 3-fold antibody dilutions. On the technique in general: ELISA stands for enzyme-linked immunosorbent assay.

B1: 5CD22-111-1-C3 (antibody, mouse IgG1, kappa, V domains shown)
VH: EVKLEESGGGLVQPGGFMKLSCVASGFTFSNYWMNWVRQSPERGLEWVAEIRLKSNDYATHYAESVKGRFTISRDDSKSNVYLQMNNLRAEDTGIYYCTRVYYYGRDYAMDYWGQGTSVTVSS
VL: QIVLTQSPAIMSASLGERVTMTCTASSSVSSIYLHWYQQKPGSSPKLWIYSTSNLASGVPGRFSGSGSGTSYSLTISSMEAEDAATYYCHQYHRSPRTFGGGTKLEIKR
B1: the binding result is listed as “binds”.
